Experimental data: US20250144178A1 (KANAPH THERAPEUTICS, published 2025)
Substitutions are numbered along the chain they refer to.

T1: recombinant mouse FAP (mouse, UniProt P97321 26-761)
T1 construct: Soluble analyte in SPR
T1 sequence (looked up): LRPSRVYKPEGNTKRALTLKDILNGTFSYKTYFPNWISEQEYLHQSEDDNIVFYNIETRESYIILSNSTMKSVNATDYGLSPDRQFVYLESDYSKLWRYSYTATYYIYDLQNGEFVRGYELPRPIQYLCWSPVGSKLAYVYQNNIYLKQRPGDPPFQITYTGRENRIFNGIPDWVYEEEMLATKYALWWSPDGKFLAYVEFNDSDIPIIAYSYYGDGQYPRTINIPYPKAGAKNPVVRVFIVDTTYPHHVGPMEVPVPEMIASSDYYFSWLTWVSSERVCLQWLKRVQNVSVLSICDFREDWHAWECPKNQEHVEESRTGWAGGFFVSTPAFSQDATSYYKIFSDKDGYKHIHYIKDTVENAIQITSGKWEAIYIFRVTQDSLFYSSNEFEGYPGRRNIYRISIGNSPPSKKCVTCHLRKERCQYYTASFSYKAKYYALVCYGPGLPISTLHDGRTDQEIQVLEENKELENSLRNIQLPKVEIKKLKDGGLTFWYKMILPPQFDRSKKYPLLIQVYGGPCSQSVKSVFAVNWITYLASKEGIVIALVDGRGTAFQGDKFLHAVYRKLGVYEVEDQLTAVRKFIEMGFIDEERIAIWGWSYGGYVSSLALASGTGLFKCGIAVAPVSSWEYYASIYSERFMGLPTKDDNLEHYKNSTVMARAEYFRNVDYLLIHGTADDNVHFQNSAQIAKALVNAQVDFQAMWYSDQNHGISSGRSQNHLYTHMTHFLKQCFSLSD

T2: mouse FAP (fibroblast activation protein alpha) overexpressed in B16F10 cells (B16F10-mFAP) (mouse, UniProt P97321 1-761)
T2 construct: whole, on cells; also called mouse FAP-expressing cell line
T2 sequence (looked up): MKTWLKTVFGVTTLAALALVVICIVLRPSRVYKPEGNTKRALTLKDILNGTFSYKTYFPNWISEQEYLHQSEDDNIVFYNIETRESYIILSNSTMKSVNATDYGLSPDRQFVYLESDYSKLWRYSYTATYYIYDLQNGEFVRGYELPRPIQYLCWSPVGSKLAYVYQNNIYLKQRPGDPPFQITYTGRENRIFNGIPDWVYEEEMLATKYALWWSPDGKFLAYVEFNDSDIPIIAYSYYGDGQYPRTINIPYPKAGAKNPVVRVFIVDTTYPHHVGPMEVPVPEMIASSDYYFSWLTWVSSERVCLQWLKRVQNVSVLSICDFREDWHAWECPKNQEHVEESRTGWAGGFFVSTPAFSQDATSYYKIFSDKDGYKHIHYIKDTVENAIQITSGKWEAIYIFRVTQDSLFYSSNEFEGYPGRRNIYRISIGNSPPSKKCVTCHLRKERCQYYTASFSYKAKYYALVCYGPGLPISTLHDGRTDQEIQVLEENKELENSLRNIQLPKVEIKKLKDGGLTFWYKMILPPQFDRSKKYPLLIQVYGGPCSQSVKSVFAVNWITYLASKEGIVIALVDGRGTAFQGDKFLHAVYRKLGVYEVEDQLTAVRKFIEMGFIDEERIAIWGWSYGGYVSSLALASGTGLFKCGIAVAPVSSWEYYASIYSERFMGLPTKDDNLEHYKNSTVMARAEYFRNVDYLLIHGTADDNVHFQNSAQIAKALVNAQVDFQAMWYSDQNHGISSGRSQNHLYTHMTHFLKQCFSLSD

B1: T1.02m (anti-mu FAP/mu IL-12 mut1, mu IgG2a DANG) (bispecific antibody)
heavy: QVQLQQSGAELARPGASVNLSCKASGYTFTNNGINWLKQRTGQGLEWIGEIYPRSTNTLYNEKFKGKATLTADRSSNTAYMELRSLTSEDSAVYFCARTLTAPFAFWGQGTLVTVSAAKTTAPSVYPLAPVCGDTTGSSVTLGCLVKGYFPEPVTLTWNSGSLSSGVHTFPAVLQSDLYTLSSSVTVTSSTWPSQSITCNVAHPASSTKVDKKIEPRGPTIKPCPPCKCPAPNLLGGPSVFIFPPKIKDVLMISLSPIVTCVVVAVSEDDPDVQISWFVNNVEVHTAQTQTHREDYGSTLRVVSALPIQHQDWMSGKEFKCKVNNKDLPAPIERTISKPKGSVRAPQVYVLPPPEEEMTKKQVTLWCMVTDFMPEDIYVEWTNNGKTELNYKNTEPVLDSDGSYFMYSKLRVEKKNWVERNSYSCSVVHEGLHNHHTTKSFSRTPGK
light: QIVLTQSPAIMSASPGEKVTMTCSASSGVNFMHWYQQKSGTSPKRWIFDTSKLASGVPARFSGSGSGTSYSLTISSMEAEDAATYYCQQWSFNPPTFGGGTKLEIKRADAAPTVSIFPPSSEQLTSGGASVVCFLNNFYPKDINVKWKIDGSERQNGVLNSWTDQDSKDSTYSMSSTLTLTKDEYERHNSYTCEATHKTSTSPIVKSFNRNEC
chain: MWELEKDVYVVEVDWTPDAPGETVNLTCDTPEEDDITWTSDQRHGVIGSGKTLTITVKEFLDAGQYTCHKGGETLSHSHLLLHKKENGIWSTEILKNFKNKTFLKCEAPNYSGRFTCSWLVQRNMDLKFNIKSSSSSPDSRAVTCGMASLSAEKVTLDQRDYEKYSVSCQEDVTCPTAEETLPIELALEARQQNKYENYSTSFFIRDIIKPDPPKNLQMKPLKNSQVEVSWEYPDSWSTPHSYFSLKFFVRIQRAKEKMAETEEGCNQKGAFLVEKTSTEVQCKGGNVCVQAQDRYYNSSCSKWACVPCRVRSGGGGSGGGGSGGGGSRVIPVSGPARCLSQSRNLLKTTDDMVKTAREKLKHYSCTAEDIDHEDITRDQTSTLKTCLPLELHKNESCLATRETSSTTRGSCLPPQKTSLMMTLCLGSIYEDLKMYQTEFQAINAALQNHNHQQIILDKGMLVAIDELMQSLNHNGETLRQKPPVGEADPYRVKMKLCILLHAFSTRVVTINRVMGYLSSAGGGGSGGGGSEPRGPTIKPCPPCKCPAPNLLGGPSVFIFPPKIKDVLMISLSPIVTCVVVAVSEDDPDVQISWFVNNVEVHTAQTQTHREDYGSTLRVVSALPIQHQDWMSGKEFKCKVNNKDLPAPIERTISKPKGSVRAPQVYVLPPPEEEMTKKQVTLSCAVTDFMPEDIYVEWTNNGKTELNYKNTEPVLDSDGSYFMVSKLRVEKKNWVERNSYSCSVVHEGLHNHHTTKSFSRTPGK
notes: Mouse surrogate, knob-in-hole heterodimer
B2: T1.03m (anti-mu FAP/mu IL-12 mut2, mu IgG2a DANG) (bispecific antibody)
heavy: B1 heavy
light: B1 light
chain: B1 chain with R254A, K256A
notes: as for B1
B3: T1.01m (anti-mu FAP/mu IL-12, mu IgG2a DANG) (bispecific antibody)
heavy: B1 heavy
light: B1 light
chain: B1 chain with A255K, A260K
notes: as for B1

Columns and labels:
recombinant mouse FAP [1] = target: T1, recombinant mouse FAP; assay: SPR, fusion protein captured by anti-mouse IgG (Fc) on a CM5 chip, mouse FAP as analyte 1.5625-100 nM, 1:1 binding model
[2] = target: T2, mouse FAP (fibroblast activation …); assay: flow cytometry on B16F10-mFAP cells, 1 µg protein per 1x10^5 cells, anti-mouse IgG2a detection
Protocol: (§1) Specifically, the cell line was prepared by suspending in a FACS buffer solution at 1×10⁵ cells/100 μl, and treated with 1 μg of each T1.12m, T1.01m, T1.02m and T1.03m. The cells were washed twice with a FACS buffer solution. The cells were stained with an anti-mouse IgG2a antibody (Biolegend). The negative control was stained only with an anti-mouse IgG2a antibody (Biolegend). The expression rate of the stained cells was measured using BD LSR and analyzed using a FlowJo software.

[3] = target: T2, mouse FAP (fibroblast activation …); assay: flow cytometry on B16F10-mFAP cells, detection with anti-mouse IgG2a antibody
Protocol: as §1

B16F10 = target: T3, B16F10; assay: flow cytometry on parental B16F10 cells, detection with anti-mouse IgG2a antibody
T3 construct: not a protein target; also called parental B16F10 cells, without the transduced mouse FAP gene
Protocol: as §1

recombinant mouse FAP [4] = target: T1, recombinant mouse FAP; assay: SPR, fusion protein captured by anti-mouse IgG (Fc) on a CM5 chip, mouse FAP as analyte 1.5625-200 nM, 1:1 binding model
Protocol: The surface of the CM5 chip was activated with a 1:1 mixture of […] (N-hydroxysuccinimide) and […] (1-Ethyl-3-(3-dimethylaminopropyl) carbodiimide), and 25 μg/ml of anti-mouse IgG (Fc) antibody was immobilized for 400 seconds at a rate of 10 μl/min. The remaining active ester groups were blocked with 1 M ethanolamine. T1.01m, T1.02m and T1.03m were diluted to 2 μg/ml and reacted on the CM5 chip immobilized with the anti-mouse IgG (Fc) antibody. The recombinant mouse FAP was diluted to 200 nM in 1×HBS-EP+buffer solution and diluted by serial dilution. The diluted recombinant mouse FAP was reacted at a rate of 30 μl/min. The association and dissociation times were 180 seconds and 400 seconds, respectively. After the dissociation, stabilization was performed for 60 seconds, and then a regeneration was performed for 30 seconds with a 10 mM glycine pH 1.5 solution at a rate of 30 μl/min.

Binder	Kd (recombinant mouse FAP [1]) [nM]	koff (recombinant mouse FAP [1]) [s⁻¹]	kon (recombinant mouse FAP [1]) [M⁻¹ s⁻¹]	percent of cells bound [2] [%]	percent of cells in the positive gate (mFAP-PE) [3] [%]	percent of cells in the positive gate (mFAP-PE) (B16F10) [%]	Kd (recombinant mouse FAP [4]) [nM]	koff (recombinant mouse FAP [4]) [s⁻¹]	kon (recombinant mouse FAP [4]) [M⁻¹ s⁻¹]
B1	1.53	0.00014	91500	≥ 99	92.1	1.37	–	–	–
B2	–	–	–	≥ 99	91.6	0.89	1.25	7.66e-05	61200
B3	1.51	6.75e-05	44700	≥ 99	93.7	2.41	–	–	–
